Article PMC12350162 (Nature, 2025)

Target: the molecule itself
Test: cryo-EM structure; 1-MDa fraction of the Superose 6 Increase step, 1 mg/ml, frozen anaerobically at once after purification; Titan Krios G3i, K3; focused maps of Hdr(ABC)2 and of the Elp arm in two conformational states

B1: heterodisulfide reductase HdrABC (complex)
chain 1: MAEEKKETMEEPKIGVYVCHCGVNIGGVVDVEAVRDYAAKLPNVVIAKDYKYYCSDPGQLEIQKDIKELGINRVVVAACSPRLHEPTFRRCVEEAGLNQFLFEFANIREHDSWVHMDNPEGATEKAKDLVRMAVAKARLLEPLEASKVSVDDKALVIGGGVAGIQAALDLADMGFKTYMVEKRPSISGRMGQLDKTFPTLDCSMCILAPKMVDVGKHDNIELITYAEVKEVDGYIGNFKVKIEKKPRYIDEELCTGCGSCVEVCPIEMPNYFDEGIGMTKAVYIPFPQAVPLCATIDKDYCIECMLCDEVCERGAVKHDQEPEEIEIEVGTIIVATGYDAYDPTEKLEYGYGRHTNVITGLELERMINASGPTDGKVLKPSDGEKPKRVAFIHCVGSRDEQIGKPYCSRVCCMYIMKNAQLIKDKMPDTEVTLYYMDIRAFGKGFEEFYKRSQEKYGIKFIRGRPAEVIENPDLTLTVRSEDTLLGKVTEYDYDMVVLGVGLVPPEGAETLRQTIGLSKSADGFLMEAHPKLRPVDTLTDGVYLAGVAQGPKDIPDAVAQASGAAARAAIPMVKGEVEIEPIIAVTDSDVCGGCEVCIELCPFGAISIEEGHANVNVALCKGCGTCVAACPSGAMDQQHFKTEQIMAQIEAALNEPASK
chain 2: not shown
chain 3: MTLLQREENIIRKGNIDKEFSEKIKAAGGDSLEYCFQCGTCTGSCPSGRRTPYRVRQIIRKANVGLKDEIISDPTLWMCTTCYSCQERCPRKVKIVDVVKLARNEAAKAGFMAPAHKAVGSFVIKTGHGVPINDATMELRKAVGLGELPPTTHQFPEALEEVQKIIKATGFDQLIGYNWETGELE
notes: also called Hdr(ABC)2; (HdrABC)2
With B1 the “stoichiometry N” value was 2.
